Data reported in IntAct's records for PubMed 27978489.

B1: T-cell immunoreceptor with Ig and ITIM domains (Homo sapiens), Q495A1 (parent)
chain: MRWCLLLIWAQGLRQAPLASGMMTGTIETTGNISAEKGGSIILQCHLSSTTAQVTQVNWEQQDQLLAICNADLGWHISPSFKDRVAPGPGLGLTLQSLTVNDTGEYFCIYHTYPDGTYTGRIFLEVLESSVAEHGARFQIPLLGAMAATLVVICTAVIVVVALTRKKKALRIHSVEGDLRRKSAGQEEWSPSAPSPPGSCVQAEAAPAGLCGEQRGEDCAELHDYFNVLSYRSLGNCSFFTETG

Variants of: B1
Details: with nect2_human NECTIN2, Q92692
Chain of nect2_human NECTIN2, Q92692 (Q92692 whole entry): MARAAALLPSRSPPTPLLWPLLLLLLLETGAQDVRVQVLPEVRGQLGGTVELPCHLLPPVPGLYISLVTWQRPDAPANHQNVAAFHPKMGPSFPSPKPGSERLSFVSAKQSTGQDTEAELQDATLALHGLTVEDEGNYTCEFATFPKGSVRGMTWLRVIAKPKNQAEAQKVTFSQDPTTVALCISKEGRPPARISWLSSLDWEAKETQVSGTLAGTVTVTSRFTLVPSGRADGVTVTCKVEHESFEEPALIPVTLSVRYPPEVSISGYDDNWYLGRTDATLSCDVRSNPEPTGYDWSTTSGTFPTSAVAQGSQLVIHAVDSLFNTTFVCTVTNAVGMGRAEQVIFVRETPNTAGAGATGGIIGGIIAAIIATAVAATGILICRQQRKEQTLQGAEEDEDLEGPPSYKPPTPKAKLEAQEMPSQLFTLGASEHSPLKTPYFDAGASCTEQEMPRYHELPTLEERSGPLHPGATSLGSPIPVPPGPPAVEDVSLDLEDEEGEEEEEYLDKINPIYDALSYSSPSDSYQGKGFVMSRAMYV

effect of a mutation on the interaction | Variant
decreasing interaction strength | T112A
decreasing interaction strength | P114A
decreasing interaction strength | Y113A
